Key:
Spf1p = molecular target: T1, Spf1p (Saccharomyces cerevisiae, UniProt P39986); experiment: ATPase assay, phosphate release (molybdate colorimetric); assay type: biochemical
T1 construct: gene SPF1; full length with C-terminal FLAG-RGS10His tag; expressed in spf1-deleted yeast (BY4741 background), purified, re-lipidated in mixed yeast polar lipid/detergent micelles; persistent dimer seen on SDS-PAGE
T1 sequence (P39986 1-1215): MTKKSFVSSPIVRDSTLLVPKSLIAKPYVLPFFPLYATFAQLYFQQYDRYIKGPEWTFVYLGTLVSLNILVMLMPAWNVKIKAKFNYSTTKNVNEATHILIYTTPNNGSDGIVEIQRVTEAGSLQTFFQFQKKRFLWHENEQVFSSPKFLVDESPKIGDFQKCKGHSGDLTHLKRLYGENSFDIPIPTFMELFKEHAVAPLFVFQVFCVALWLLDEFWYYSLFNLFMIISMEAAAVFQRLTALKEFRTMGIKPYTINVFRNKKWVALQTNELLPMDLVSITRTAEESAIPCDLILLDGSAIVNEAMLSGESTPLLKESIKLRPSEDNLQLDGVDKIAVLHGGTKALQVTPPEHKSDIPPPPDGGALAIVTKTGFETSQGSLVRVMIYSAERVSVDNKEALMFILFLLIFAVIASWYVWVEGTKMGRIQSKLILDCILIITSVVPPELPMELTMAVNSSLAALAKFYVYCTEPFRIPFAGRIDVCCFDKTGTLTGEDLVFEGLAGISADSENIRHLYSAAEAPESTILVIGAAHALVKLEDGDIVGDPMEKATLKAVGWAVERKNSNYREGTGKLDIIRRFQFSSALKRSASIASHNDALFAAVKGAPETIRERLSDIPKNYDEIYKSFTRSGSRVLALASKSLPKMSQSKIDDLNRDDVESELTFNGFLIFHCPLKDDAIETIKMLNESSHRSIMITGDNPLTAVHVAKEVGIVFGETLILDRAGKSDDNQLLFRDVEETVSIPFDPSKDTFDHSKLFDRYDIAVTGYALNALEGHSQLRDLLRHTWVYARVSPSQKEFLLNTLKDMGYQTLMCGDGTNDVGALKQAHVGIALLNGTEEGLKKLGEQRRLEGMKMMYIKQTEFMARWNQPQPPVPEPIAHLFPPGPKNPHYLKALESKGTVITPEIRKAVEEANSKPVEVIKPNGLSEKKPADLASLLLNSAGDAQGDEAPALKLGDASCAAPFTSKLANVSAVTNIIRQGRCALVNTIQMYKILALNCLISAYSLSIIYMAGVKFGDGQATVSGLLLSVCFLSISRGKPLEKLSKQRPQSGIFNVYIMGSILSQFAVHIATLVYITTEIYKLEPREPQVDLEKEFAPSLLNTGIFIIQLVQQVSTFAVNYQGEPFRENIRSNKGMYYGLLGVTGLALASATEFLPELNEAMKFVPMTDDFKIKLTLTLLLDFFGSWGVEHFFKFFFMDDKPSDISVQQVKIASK
Text: ATPase assay, phosphate release (molybdate colorimetric) on Spf1p | Vanadate sensitivity of Spf1p in mixed YPL/OG micelles

[1] = substrate: Nc1ncnc2c1ncn2[C@@H]1O[C@H](COP(=O)(O)OP(=O)(O)OP(=O)(O)O)[C@@H](O)[C@H]1O; experiment: as above; assay type: biochemical, Saccharomyces cerevisiae; details: YPL/OG micelles (0.35% w/w OG); Mg2+; Michaelis-Menten fit
Text: ATPase assay, phosphate release (molybdate colorimetric) on Spf1p | ATP affinity of Spf1p in YPL/OG micelles

[2] = molecular target: the molecule itself; experiment: SDS-PAGE of the purified protein (band at twice the expected size); purified fractions run on SDS-PAGE gels, strongly denaturing conditions; bands of the full-length protein identified by mass spectrometry (S1 Fig)

Molecule `[O]=[V]([OH])([OH])[OH]` [vanadate] has a Ki (Spf1p) of 10.3 ± 0.747 µM.

B1: Saccharomyces cerevisiae P5A ATPase Spf1p (enzyme, UniProt P39986 1-1215, looked up)
chain: T1 sequence (P39986 1-1215)
notes: Spf1p, P5A-type ATPase of the endoplasmic reticulum, Saccharomyces cerevisiae, full length; The abstract speaks of a purified 'functional tagged version'; removal of the tag is not mentioned; also called full length Spf1p; full-length expression construct (Spf1p); not shown: FLAG, C-terminal, kept; RGS10His, C-terminal, kept
For B1, the Km [1] was 0.1332 ± 0.0189 mM and the binding result [2] was “binds”.

From PMC9584430, “ATP hydrolytic activity of purified Spf1p correlate with micellar lipid fluidity and is dependent on conserved residues in transmembrane helix M1” (PLoS ONE, 2022)
